Patent EP4549938A1

Molecular target: No. 1 APOA2-like protein (vasculitis-associated apolipoprotein A2, VAP2) (human)
Assay: Western blot band score with VasSF, COVID-19 patient sera at hospital admission (Fig. 4)

signal score: 4 /2 µL serum
B1: VasSF, single chain variable region fragment (ScFv) (scFv, V domains shown)
VH: QVHLVESGGGLVQPGRSLRLSCAVSGFTFASYAMHWVRQAPGKGLEWVAGISKDGSNKRHADSLEGRFTISRDNSKNTLYLQVSGLRAEDTAVYYCARSQDPTDFDWLLSEHWGQGTLVTVSS
